What was measured:
[1] = biological target: T1, neuroendocrine protein Discs Large 3 (NE-dlg, DLG3) amino acids 94-506 (yeast; human, UniProt P04386 768-881; Q92796 94-506); assay: yeast two-hybrid
T1 construct: also called SAP102
T1 sequence (looked up): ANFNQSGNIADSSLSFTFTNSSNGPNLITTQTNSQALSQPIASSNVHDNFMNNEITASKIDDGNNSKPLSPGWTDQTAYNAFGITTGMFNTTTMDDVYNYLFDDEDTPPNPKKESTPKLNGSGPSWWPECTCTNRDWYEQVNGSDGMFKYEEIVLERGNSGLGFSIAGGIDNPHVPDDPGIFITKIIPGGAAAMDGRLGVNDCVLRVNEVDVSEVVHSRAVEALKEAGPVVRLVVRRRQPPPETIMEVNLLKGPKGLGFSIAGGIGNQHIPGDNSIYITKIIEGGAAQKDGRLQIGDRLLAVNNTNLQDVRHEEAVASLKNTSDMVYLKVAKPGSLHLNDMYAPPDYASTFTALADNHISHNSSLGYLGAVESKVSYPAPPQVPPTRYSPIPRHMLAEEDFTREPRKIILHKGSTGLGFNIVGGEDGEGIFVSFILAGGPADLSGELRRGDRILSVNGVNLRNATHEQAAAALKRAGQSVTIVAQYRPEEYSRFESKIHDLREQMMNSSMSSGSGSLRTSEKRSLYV
From the text: (§1) The principles and methods of the yeast two-hybrid systems have been described in detail (Bartel and Fields, 1997). The following is thus a description of the particular procedure that was used, which was applied to all proteins.
(§2) The cDNA encoding the bait protein was generated by PCR from brain cDNA. Gene-specific primers were synthesized with appropriate tails added at their 5′ ends to allow recombination into the vector pGBTQ. The tail for the forward primer was 5′-[…]-3′ (SEQ ID NO: 1) and the tail for the reverse primer was 5′-[…]-3′ (SEQ ID NO:2). […] The new construct was selected directly in the yeast J693 for its ability to drive tryptophane synthesis (genotype of this strain: Mat α, ade2, his3, leu2, trp1, URA3::GAL1-lacZ LYS2::GAL1-HIS3 gal4del gal80del cyhR2). In these yeast cells, the bait is produced as a C-terminal fusion protein with the DNA binding domain of the transcription factor Gal4 (amino acids 1 to 147). A total human brain (person) cDNA library cloned into the yeast expression vector pACT2 was purchased from Clontech (human brain […] cDNA, cat. # HL4004AH), transformed into the yeast strain J692 (genotype of this strain: Mat α, ade2, his3, leu2, trp1, URA3::GAL1-lacZ LYS2::GAL1-HIS3 gal4del gal80del cyhR2), and selected for the ability to drive leucine synthesis. In these yeast cells, each cDNA is expressed as a fusion protein with the transcription activation domain of the transcription factor Gal4 (amino acids 768 to 881) and a 9 amino acid hemagglutinin epitope tag. J693 cells […] expressing the bait were then mated with J692 cells […] expressing proteins from the brain library. The resulting diploid yeast cells expressing proteins interacting with the bait protein were selected for the ability to synthesize tryptophane, leucine, histidine, and β-galactosidase.

[2] = biological target: T2, transcription factor HTF4A amino acids 296-494 (yeast; human, UniProt P04386 768-881; Q99081 296-494); assay: yeast two-hybrid
T2 sequence (looked up): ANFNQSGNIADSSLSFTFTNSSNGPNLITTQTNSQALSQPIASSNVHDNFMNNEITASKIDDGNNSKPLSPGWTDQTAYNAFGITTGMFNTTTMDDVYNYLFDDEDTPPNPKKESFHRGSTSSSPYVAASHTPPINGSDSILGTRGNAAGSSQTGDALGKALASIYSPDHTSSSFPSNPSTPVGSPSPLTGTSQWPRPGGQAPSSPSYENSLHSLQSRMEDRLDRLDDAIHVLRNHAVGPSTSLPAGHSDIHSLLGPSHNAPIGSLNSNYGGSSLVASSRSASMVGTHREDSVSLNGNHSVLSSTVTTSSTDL
From the text: as §1, §2

B1: bcr (break point cluster) amino acids 1206-1271, C-terminal bait (other, UniProt P04386 1-147, looked up)
chain: MKLLSSIEQACDICRLKKLKCSKEKPKCAKCLKNNWECRYSPKTKRSPLTRAHLTEVESRLERLEQLFLLIFPREDLDMILKMDSLQDIKALLTGLFVQDNVNKDAVTDRLASVETDMPLTLRQHRISATSSSEESSNKGQRQLTVSVFGPTLLRPSEKESKLPANPSQPITMTDSWSLEVMSQVQVLLYFLQLEAIPAPDSKRQSILFSTEV
[1]
  binding result: binds
[2]
  binding result: binds
